# B1: human cystatin C (wild type) (natural protein)
# chain: SSPGKPPRLVGGPMDASVEEEGVRRALDFAVGEYNKASNDMYHSRALQVVRARKQIVAGVNYFLDVELGRTTCTKTQPNLDNCPFHDQPHLKRKAFCSFQIYAVPWQGTMTLSKSTCQDA
# modifications: 2H-labelled (deuterated) in D-HCC; protonated in H-HCC
# How the values were obtained:
# [1] = biological target: amyloid beta peptide Aβ 1–42 (fibrils)
# [2] = biological target: amyloid beta peptide Aβ 3–28 (fibrils)
Molecule,"decrease of SANS scattering intensity at q < 0.01 between the beginning (300 s) and the end of the kinetic experiment (fibril disaggregation; 37 °C, deuterated HCC 1 mg/mL) [1]","decrease of SANS scattering intensity at q < 0.01 between the beginning (300 s) and the end of the kinetic experiment (fibril disaggregation; 37 °C, deuterated HCC 1 mg/mL, 1–10 h) [2]"
human cystatin C (wild type) (from UniProt P01034 27-146) (natural protein),4%,–
B1,–,> 70%

# — paper PMC10682421
